Assay results from publication PMC7069805.

Molecular target: MD39 stabilized gp140 HIV Env trimer (HIV)
Test: SEC-MALS

Substance: MD39 stabilized gp140 HIV Env trimer (domain or fragment)
- stoichiometry N: 3
